From patent US20260216242A1 (ALMAC DISCOVERY, published 2026)
Where a chain is given by its changes, count along the chain named.

T1: Human ALPPL2 (leucine zipper) (human)
T1 construct: Whole entry: fused with a cysteine stabilised leucine zipper and His tag; also called hALPPL2
T1 chain: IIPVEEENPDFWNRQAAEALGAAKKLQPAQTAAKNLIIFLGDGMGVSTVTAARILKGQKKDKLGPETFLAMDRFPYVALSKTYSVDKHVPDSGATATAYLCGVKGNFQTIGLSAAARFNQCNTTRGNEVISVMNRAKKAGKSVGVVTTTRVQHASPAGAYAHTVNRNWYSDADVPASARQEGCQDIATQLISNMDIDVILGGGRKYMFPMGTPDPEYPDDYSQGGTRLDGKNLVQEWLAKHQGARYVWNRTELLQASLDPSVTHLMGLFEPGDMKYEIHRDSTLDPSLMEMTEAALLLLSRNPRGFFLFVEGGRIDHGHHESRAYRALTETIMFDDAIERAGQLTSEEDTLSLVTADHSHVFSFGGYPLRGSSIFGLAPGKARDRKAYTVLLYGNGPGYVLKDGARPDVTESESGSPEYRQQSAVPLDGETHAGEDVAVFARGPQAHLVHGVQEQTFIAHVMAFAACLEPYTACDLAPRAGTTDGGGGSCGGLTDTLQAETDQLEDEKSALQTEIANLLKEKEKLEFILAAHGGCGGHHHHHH

T2: Human ALPP (leucine zipper) (human)
T2 construct: Whole entry: ALPP fused with a cysteine stabilised leucine zipper and His tag; also called hALPP
T2 chain: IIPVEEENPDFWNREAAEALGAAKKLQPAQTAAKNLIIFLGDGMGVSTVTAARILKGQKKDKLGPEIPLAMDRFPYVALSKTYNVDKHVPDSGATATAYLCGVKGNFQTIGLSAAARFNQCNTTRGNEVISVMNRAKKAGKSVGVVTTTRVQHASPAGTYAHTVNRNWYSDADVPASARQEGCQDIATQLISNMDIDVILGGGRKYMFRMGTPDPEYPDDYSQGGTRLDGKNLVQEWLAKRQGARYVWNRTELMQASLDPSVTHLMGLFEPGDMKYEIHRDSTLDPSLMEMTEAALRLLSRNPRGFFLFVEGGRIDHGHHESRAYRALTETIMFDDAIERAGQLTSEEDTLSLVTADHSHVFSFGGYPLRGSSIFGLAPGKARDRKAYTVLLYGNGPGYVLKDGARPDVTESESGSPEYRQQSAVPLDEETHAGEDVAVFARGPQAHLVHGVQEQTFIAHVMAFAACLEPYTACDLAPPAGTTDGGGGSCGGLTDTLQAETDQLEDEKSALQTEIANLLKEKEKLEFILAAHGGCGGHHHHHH

T3: Human ALPL (leucine zipper) (human)
T3 construct: Whole entry: fused with a cysteine stabilised leucine zipper and His tag; also called hALPL
T3 chain: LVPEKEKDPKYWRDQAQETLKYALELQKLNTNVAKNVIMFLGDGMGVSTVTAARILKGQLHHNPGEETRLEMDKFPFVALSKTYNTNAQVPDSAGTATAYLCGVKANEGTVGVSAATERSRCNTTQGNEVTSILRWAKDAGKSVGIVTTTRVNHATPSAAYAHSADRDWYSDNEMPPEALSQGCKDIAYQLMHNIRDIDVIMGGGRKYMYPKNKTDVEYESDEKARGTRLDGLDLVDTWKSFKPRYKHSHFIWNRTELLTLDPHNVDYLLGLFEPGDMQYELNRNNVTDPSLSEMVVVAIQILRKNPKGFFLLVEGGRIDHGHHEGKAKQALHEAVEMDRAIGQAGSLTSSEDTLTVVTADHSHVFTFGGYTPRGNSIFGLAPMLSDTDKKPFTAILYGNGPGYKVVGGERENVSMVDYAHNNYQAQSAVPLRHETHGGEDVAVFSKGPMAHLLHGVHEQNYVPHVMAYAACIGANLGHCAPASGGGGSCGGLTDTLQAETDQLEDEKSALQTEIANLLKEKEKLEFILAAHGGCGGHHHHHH

B1: A06 His (VHH, not shown: small tags and cut ends)
VHH: QVHLVESGGGLVQAGGSLRLSCAASGRTFLSMGWFRQAPGKEREFVAAISWTGGSTGYADSVKGRFTISRESDKETMYLQMNSLKPEDTAVYYCAARGDVYYGGDDATRYKYWGQGTQVTVSS
notes: also called #250
B2: F08 His (VHH, not shown: small tags and cut ends)
VHH: QVQLVESGGGSVQAGGSLRLSCAASGPSLSNYAMGWFRQAPGKEREFVAGISWGGGRTSYTDSVKGRFTISRDNAKNTVYLQMNNLKPEDTGVYYCAGRYGRGRNVEYEYDYWGQGTQVTVSS
notes: also called #269
B3: D10 His (VHH, not shown: small tags and cut ends)
VHH: QVQLVESGGGLVQPGGSLRLSCAASGSIFSVNTMGWYRQAPGKQRDLVAVATSGGTIHYADSVKGRFTISRDNAKNTVYLQMNSLKPEDTAVYYCNLVVPYGMIAGDHDYWGQGTKVTVSS
B4: D04 His (VHH, not shown: small tags and cut ends)
VHH: QVQLVESGGGLVQPGGSLRLSCAASESTFSINVMGWYRQAPGKQRELVATITSGDITNYADSVKGRFTISRDNAENTVYLRTNSLKPEDTAVYYCNARGEYHSGNEYDYWGQGTQVTVSS
B5: E10 His (VHH, not shown: small tags and cut ends)
VHH: QVQLVESGGGLVQAGGSLRLSCAVSGRALSDYNIGWFRQAPGKEREFVARKTWDGSSTRYDDSVKGRFTVSIEDAKNTAYLQMSSLKTEDTAVYYCAAGRYSRARGWEYDYWGQGTQVTVSS
notes: also called #265
B6: F05 His (VHH, not shown: small tags and cut ends)
VHH: B5 VHH with V24A, L29F, S30G, K51R, E73D, D74N, S84N, A104V
B7: E06 His (VHH, not shown: small tags and cut ends)
VHH: QVHLVESGGGLVQAGGSLRLSCAASRRSFSEYAMGWFRQAPGKEREFVAAIGWSGVIEYADSVKGRFTISRDNAKDTVYLQMNSLKPEDTAVYYCAAGLGIRVVSQTPAYWGQGTQVTVSS
B8: C07 His (VHH, not shown: small tags and cut ends)
VHH: QVQLVESGGGLVQAGESLRLACAASGTIFSGNAVGWYRQAPEKQREWVSSITDYGDTDYAEAVKGRFTISRDNAKNTVYLQMNSLKPEDTAVYYCYVYQRGESEEYWGQGTQVTVSS
notes: also called #258
B9: A05 His (VHH, not shown: small tags and cut ends)
VHH: QVQLVESGGGLVQAGASLTLSCAASGFTFNTRSIVWFRQAPGKEREAVSCISKVAGSTYYGDSVQGRFSSSTDNAKNTVSLQMNSLKPEDTAVYTCAASFAPNCYGWSVAANMEYWGEGTMVTVSS
notes: also called #249

Target: T1, Human ALPPL2 (leucine zipper)
Assay: BLI, antigen immobilised
Protocol: (§1) Binding kinetics were determined using the Biolayer Interferometry (BLI) Octet K2 system (Sartorius). […] All assays were conducted in PBS with a plate temperature of 25° C. Ka (M⁻¹s⁻¹), Kd (s⁻¹) and KD (nM) values were determined using Octet Data Analysis High Throughput software (ForteBio) for Biolayer Interferometry.
In the case of B1, the Kd is reported as 5.04 nM, the koff is reported as 0.000672 s⁻¹ and the kon is reported as 133000 M⁻¹ s⁻¹.
In the case of B2, the Kd is reported as < 0.01 nM, the koff is reported as < 1e-07 s⁻¹ and the kon is reported as 684000 M⁻¹ s⁻¹.
In the case of B3, the Kd is reported as 1.22 nM, the koff is reported as 0.0028 s⁻¹ and the kon is reported as 2.3e+06 M⁻¹ s⁻¹.
B4 gave a Kd of 2.92 nM.
Work on B5 yielded a Kd of 0.0862 nM, a koff of 0.000141 s⁻¹ and a kon of 1.64e+06 M⁻¹ s⁻¹.
In the case of B6, the Kd is reported as 0.0954 nM, the koff is reported as 0.000356 s⁻¹ and the kon is reported as 3.74e+06 M⁻¹ s⁻¹.
With B7 the Kd was 0.0834 nM, the koff was 8.75e-05 s⁻¹ and the kon was 1.05e+06 M⁻¹ s⁻¹.
B8 showed a Kd of 0.61 nM, a koff of 0.000288 s⁻¹ and a kon of 471000 M⁻¹ s⁻¹.

Target: T2, Human ALPP (leucine zipper)
Assay: BLI, antigen immobilised
Protocol: as §1
B1 was tested, and the Kd was 1.32 nM, the koff was 0.000154 s⁻¹ and the kon was 117000 M⁻¹ s⁻¹.
In the case of B2, the Kd is reported as < 0.01 nM, the koff is reported as < 1e-07 s⁻¹ and the kon is reported as 252000 M⁻¹ s⁻¹.
Work on B3 yielded a Kd of 0.2 nM, a koff of 1.3e-05 s⁻¹ and a kon of 67300 M⁻¹ s⁻¹.
For B4, the Kd was < 0.01 nM, the koff was < 1e-07 s⁻¹ and the kon was 85100 M⁻¹ s⁻¹.
For B9, the Kd was < 0.01 nM, the koff was < 1e-07 s⁻¹ and the kon was 260000 M⁻¹ s⁻¹.
For B5, the Kd was < 0.01 nM, the koff was < 1e-07 s⁻¹ and the kon was 54200 M⁻¹ s⁻¹.
With B6 the Kd was < 0.01 nM, the koff was < 1e-07 s⁻¹ and the kon was 13900 M⁻¹ s⁻¹.
B7 was tested, and the Kd was < 0.01 nM, the koff was < 1e-07 s⁻¹ and the kon was 106000 M⁻¹ s⁻¹.
In the case of B8, the Kd is reported as 0.22 nM, the koff is reported as 2.8e-05 s⁻¹ and the kon is reported as 129000 M⁻¹ s⁻¹.

Target: T3, Human ALPL (leucine zipper)
Assay: BLI, antigen immobilised
Protocol: as §1
B1: no binding.
B2: no binding.
B3: no binding.
B4: no binding.
B9: no binding.
B5: no binding.
B6: no binding.
B7: no binding.
B8: no binding.
